For this assay, the target named is T1, human ITIH-1 antigen (inter-alpha trypsin inhibitor heavy chain 1) (human).
T1 construct: Produced in HEK293F cells and purified; used as the immunogen; also called SHAP
As to the kind of experiment: biolayer interferometry, AR2G biosensor, antibody as ligand. On the procedure:
5D6 and 9E1 were bound to ITIH1 with high affinity, as shown in the table below, and affinity was determined by AbClon Inc. using an AR2G (Bio-Sensor).

T1 sequence (chain, as listed by the source limits assumed): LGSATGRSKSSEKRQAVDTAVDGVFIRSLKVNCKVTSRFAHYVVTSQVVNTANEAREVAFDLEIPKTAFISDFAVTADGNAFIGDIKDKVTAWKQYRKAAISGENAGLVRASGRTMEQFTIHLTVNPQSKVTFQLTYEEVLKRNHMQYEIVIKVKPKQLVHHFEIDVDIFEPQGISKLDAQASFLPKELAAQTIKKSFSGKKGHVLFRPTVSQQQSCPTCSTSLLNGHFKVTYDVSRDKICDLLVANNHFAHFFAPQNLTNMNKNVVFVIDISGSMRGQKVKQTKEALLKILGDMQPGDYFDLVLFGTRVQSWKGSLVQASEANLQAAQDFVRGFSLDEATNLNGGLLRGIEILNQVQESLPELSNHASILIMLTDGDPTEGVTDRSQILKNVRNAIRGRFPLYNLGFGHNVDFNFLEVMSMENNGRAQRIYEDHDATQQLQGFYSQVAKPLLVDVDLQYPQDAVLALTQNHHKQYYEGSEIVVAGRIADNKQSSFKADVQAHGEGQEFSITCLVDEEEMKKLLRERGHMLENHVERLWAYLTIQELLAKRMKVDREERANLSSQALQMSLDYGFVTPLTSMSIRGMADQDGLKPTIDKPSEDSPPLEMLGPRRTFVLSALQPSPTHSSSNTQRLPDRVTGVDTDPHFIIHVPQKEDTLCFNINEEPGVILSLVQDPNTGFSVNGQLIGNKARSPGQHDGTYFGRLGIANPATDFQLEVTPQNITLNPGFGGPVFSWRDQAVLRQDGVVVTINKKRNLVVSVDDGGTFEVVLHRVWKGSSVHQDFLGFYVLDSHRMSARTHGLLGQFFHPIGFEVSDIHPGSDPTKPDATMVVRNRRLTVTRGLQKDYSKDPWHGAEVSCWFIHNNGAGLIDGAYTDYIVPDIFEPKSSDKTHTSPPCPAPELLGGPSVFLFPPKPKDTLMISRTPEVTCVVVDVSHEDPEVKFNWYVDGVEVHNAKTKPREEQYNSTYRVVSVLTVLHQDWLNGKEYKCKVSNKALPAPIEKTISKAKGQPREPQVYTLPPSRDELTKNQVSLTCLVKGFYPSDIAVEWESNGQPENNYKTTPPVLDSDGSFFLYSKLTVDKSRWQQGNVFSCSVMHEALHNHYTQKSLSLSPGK

B1: monoclonal antibody 9E1 against ITIH1 (antibody, V domains shown)
VH: EVQLQQSGTVLARPGASVKMSCRASGYSFTSYWMHWVKQRPGQGLEWIGSIYPGNTDTNYNQKFKGKAKLTAVTSASTAYMELSSLTNEDSAVYYCTRYGTSEGFAYWGQGTLVTVSA
VL: DIVMTQSPASLAVSLGQRATISCRASQSVSTSSYSYMHWYQQKPGQPPKLLIKYASNLESGVPARFSGSGSGTDFTLNIHPVEEEDSATYYCQHSWEIPPTFGGGTKLEIK
notes: Mouse (BALB/c) hybridoma monoclonal antibody made by AbClon Inc; also called antibody clone 9E1; 9E1 clonal antibody
Molecule B1 showed a dissociation constant Kd of 0.133 nM, a koff of 4.45e-05 s⁻¹ and a kon of 334000 M⁻¹ s⁻¹.

B2: monoclonal antibody 5D6 against ITIH1 (antibody, V domains shown)
VH: EVQLQQSGAELVKPGTSVKMSCKASGYTFTSYWMHWVRQRPGQGLEWIGDIYPGTDSTNYNEKFKSKATLTVDTSSSTAYMQLSSLTSEDSAVYYCSRSGDYYDYWGQGTTVTVSS
VL: DIVLTQSPASLAVSLGQRATISCRASQSVSTSSYSYMHWYQQKPGQPPKLLIKYASNLESGVPARFSGSGSGTDFTLNIHPVEEEDTATYYCQHSWEIPWTFGGGTKLEIK
notes: Mouse (BALB/c) hybridoma monoclonal antibody made by AbClon Inc; also called antibody clone 5D6; 5D6 clonal antibody
Take B2: the Kd was determined as 0.243 nM, the koff was found to be 7.05e-05 s⁻¹ and the on-rate constant (kon) was 291000 M⁻¹ s⁻¹.

Source of the values: patent US20220411488A1 (APHARMA, published 2022).
